Sequences and labels used below:
B1: cyclophilin D (enzyme)
chain: not shown
B2: p53 NTD 20-70 (domain or fragment)
chain: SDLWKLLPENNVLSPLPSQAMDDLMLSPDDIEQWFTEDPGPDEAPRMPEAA

One test addresses full-length p53 (UniProt P04637 1-393). Nature of the test: SPR.
The test “cyclophilin D” concerns the target B1. Nature of the test: SPR.

cyclophilin D, sequence (P30405 43-207): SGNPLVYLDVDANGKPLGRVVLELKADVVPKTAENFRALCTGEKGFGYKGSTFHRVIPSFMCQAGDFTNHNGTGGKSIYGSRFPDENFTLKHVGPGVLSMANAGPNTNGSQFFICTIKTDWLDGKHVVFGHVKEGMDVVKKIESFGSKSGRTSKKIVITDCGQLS

Molecule B1 yielded a Kd with full-length p53 of around 1 µM.

Regarding B2, in the test with cyclophilin D, binding was characterised by a dissociation constant (Kd) of 9.4 µM. That is a single-digit micromolar value.

The values above are taken from article doi:10.1101/2021.07.23.453429 (bioRxiv, 2021).
